{"source": "paper PMC4125468", "origin": "cited, not measured here", "key": {"sCD14 (Homo sapiens)": {"target": "sCD14 (Homo sapiens) (UniProt P08571)", "sequence (P08571 20-345)": "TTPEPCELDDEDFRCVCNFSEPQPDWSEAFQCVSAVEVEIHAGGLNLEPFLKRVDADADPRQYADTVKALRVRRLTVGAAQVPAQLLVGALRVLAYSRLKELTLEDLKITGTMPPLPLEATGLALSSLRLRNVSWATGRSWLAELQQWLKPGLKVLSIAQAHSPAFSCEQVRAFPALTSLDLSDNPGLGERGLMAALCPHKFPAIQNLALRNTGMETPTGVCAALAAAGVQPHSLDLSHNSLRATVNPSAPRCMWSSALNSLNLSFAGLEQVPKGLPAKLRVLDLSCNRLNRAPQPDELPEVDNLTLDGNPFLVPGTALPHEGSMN"}, "MD-2 (Homo sapiens) [1]": {"target": "MD-2 (Homo sapiens) (UniProt Q9Y6Y9)", "experiment": "radioligand binding"}, "MD-2 (Homo sapiens) [2]": {"target": "MD-2 (Homo sapiens) (UniProt Q9Y6Y9)"}}, "note": "pKd: −log10 of the molar value. Where two headings read alike, the source gives them in different places."}
{"substance": "MD-2/TLR4ECD ECD (from UniProt Q9Y6Y9)", "values": [{"measurement": "pKd", "setting": "sCD14 (Homo sapiens)", "result": 9.70}]}
{"substance": "TLR4 ECD (from UniProt O00206)", "values": [{"measurement": "pKd", "setting": "MD-2 (Homo sapiens) [1]", "result": 9.30}]}
{"substance": "TLR4ECD ECD (from UniProt O00206)", "values": [{"measurement": "pKd", "setting": "MD-2 (Homo sapiens) [2]", "result": 9.70}]}
